From patent US20050221381A1, “Method for isolating ligands” (priority 2002, published 2005)
Entries after “also recorded” stand apart in the source; their conditions may differ. Where two headings read alike, the source gives them in different places.

Assays:
[1] = target: T1, soluble DRB1*0101 molecules (Homo sapiens, UniProt P01903+P01911, A100R/D57E/F55L/F60I/F76Y/I96L/L162R/M171V/P40L/Q125E/R42F/V115G/Y59C); assay: Peptide binding assay, SDS-stability assay; design: key: −: no binding; +/−: weak binding; +: intermediate binding; ++: strong binding; conditions: individual pp65 15mer
T1 construct: Soluble HLA class I A*0201 and HLA class II DRA1*0101/DRB1*0101/Ii, DRA1*0101/DRB1*0401/Ii and DRA1*0101/DRB1*0404/Ii molecules were expressed in SC-2 cells; made in house; host or cells: SC-2 cells

[2] = target: T2, soluble DRB1*0401 molecules (DR4) (Homo sapiens, UniProt P01903+P01911, A100K/A169T/F76Y/I96L/K127E/L162R/M171V/N62H/P40V/Q125Y/R42H/S133A/S149N/S66Y/V115G/V209L/W38E); format: binding; design: key: +++: high binding affinity; ++: moderate binding affinity; +: low binding affinity; −: no binding
T2 construct: Soluble HLA class I A*0201 and HLA class II DRA1*0101/DRB1*0101/Ii, DRA1*0101/DRB1*0401/Ii and DRA1*0101/DRB1*0404/Ii molecules were expressed in SC-2 cells; made in house; host or cells: SC-2 cells

[3] = target: T3, soluble DRB1*0404 molecules (Homo sapiens, UniProt P01903+P01911, A100R/A169T/F76Y/I96L/K127E/L162R/M171V/N62H/P40V/Q125Y/R42H/S133A/S149N/S66Y/V209L/W38E); assay: Peptide binding assay, SDS-stability assay
T3 construct: Soluble HLA class I A*0201 and HLA class II DRA1*0101/DRB1*0101/Ii, DRA1*0101/DRB1*0401/Ii and DRA1*0101/DRB1*0404/Ii molecules were expressed in SC-2 cells; made in house; host or cells: SC-2 cells

[4] = system: PBMC from CMV seropositive donors; format: cell-based, human
[5] = system: PBMC (CD4 and CD8 positive T-cell compartments); assay: Intracellular IFN-γ staining combined with surface staining for CD4, CD8, CD69 (FACS); format: cell-based, human; conditions: donor 10788, peptide 80 μg/ml (FIG. 11)
Description: To distinguish between CD8-positive CTL mediated or CD4-positive HTL mediated reactivity, intracellular cytokine staining combined with staining for surface markers was performed: after thawing, PBMNC were kept overnight (37° C., 5% CO2) in RPMI1640 with 10% human serum type AB (BioWhittaker). Next day aliquots of 2 million PBMNC were incubated with peptide (80 μg/ml) or Concanavalin A (SIGMA). After 1 h, 10 μg/ml brefeldin A (SIGMA) were added and incubation was continued for 5 hours. Surface staining for CD4 (phycoerythrin), CD8 (cychrome), CD69 (allophycocyanine) was done with antibodies labelled as indicated (Pharmingen, San Diego, Calif., USA). After fixation with 1% para-formaldehyde in PBS, cells were permeabilized by incubating for 15 min in 0.5% BSA/0.1% Na-azide/0.1% saponin in PBS. Intracellular cytokines were stained with anti-IFN-γ (FITC) antibody 4S.B3 (Pharmingen). Samples (100,000 events in the lymphocyte gate) were read on a FACScalibur (Becton Dickinson).
FIG. 11: Confirmation of simultaneous CD4+ and CD8+ T-cell responses against CMVpp65 15mers 469, 470 by intracellular IFN-γ staining. PBMC from 2 donors (10687, 10788) were stimulated with either ConA as positive control (1st column), 15mers containing both putative class I and class II epitopes (columns 2 and 3) or medium as negative control (right column). Cells were stained for intracellular IFN-γ (x-axis) or surface the T-cell differentiation markers CD4 or CD8 (y-axis). Percentage in upper-right quadrant is indicated, numbers significant over background are shown boldface.

[6] = target: T3, soluble DRB1*0404 molecules; assay: Peptide binding assay, SDS-stability assay; design: key: −: no binding; +/−: weak binding; +: intermediate binding; ++: strong binding; conditions: individual pp65 15mer
[7] = system: DRB1*0401, DRB1*0101, DRB1*0404, DRB1*0701 and DRB1*1101; assay: Binding to soluble HLA molecules of different allels (promiscuity); design: species or system human
Description: In peptide binding reactions HLA molecules were used in a concentration of 0.5 μM, and each single peptide was added in 10-fold molar excess (5 μM) if not mentioned differently. […] The reaction was performed in PBS buffer (pH 7.4) at room temperature for 48 hours in the presence of a protease inhibitor cocktail (Roche) and 0.1% octyl-b-D-glucopyranoside (Sigma).
Peptide binding was evaluated in an SDS-stability assay (Gorga et al., 1987): trimeric HLA class II ab-peptide complexes are resistant to SDS and consequently appear as ˜60 kDa band in SDS-PAGE Western blot analysis. Individual HLA class II α and β chains not stabilized by a peptide binding with intermediate to high affinity migrate as ˜35 kDa and ˜30 kDa bands, respectively.
The binding affinities to DRB1*0701 and DRB1*1101 were tested by a peptide-competition assay (Reay et al., 1992). Briefly, binding of the biotinylated CLIP peptide (reference peptide) has been used for monitoring of HLA:peptide complex formation. […] In the case of lower affinity peptides they should be added in excess to the reference peptide to compete for occupancy of HLA binding grove. […] Alternatively, comparing of the amount of reference peptide bound to HLA molecules in the presence or absence of competitor peptide one can determine the binding activity of the peptide of interest.
In the present peptide-competition assay conditions of peptide binding were similar to described above. Soluble HLA molecules were used in the concentration of 0.5 μM and biotinylated CLIP was added to all samples in the final concentration of 2 μM. Competitor peptides were added in three different concentrations: 0.25, 5 and 100 μM. Binding reaction was performed in PBS buffer (pH 7.4) for 18 hours at 37° C. […] Briefly, MaxiSorb 96-well plates (Nunc, Denmark) were coated with mouse anti-αβ antibody L243 (purified from ATCC HB-55) by overnight incubation with 50 μl of 10 μg/ml dilution in PBS at 4° C. Non-specific binding to the plastic was blocked by incubation with T-PBS containing 3% of BSA for 2 hours at 37° C. and binding reactions were then “captured” for 2 hours at room temperature. […] The optical density at 405 nm was measured on a microplate reader SUNRISE (Tecan).
Some of the identified DRB1*0401 binding peptides, as well as others chosen by prediction algorithms were also tested for binding to soluble HLA molecules of different allels: DRB1*0101, DRB1*0404, DRB1*0701 and DRB1*1101 (Table 3).

[8] = target: T2, soluble DRB1*0401 molecules (DR4); format: binding; design: key to Binding to DRB1 *0401: −: no binding/T cell response; +/−: weak binding/T cell response; +: intermediate binding/T cell response; ++: strong binding/T cell response; conditions: soluble DRB1*0401 molecules
[9] = system: HLA-DRB1*0401-transgenic mice splenocytes; format: in vivo, mouse; design: key to DRB1*0401 mice total SC (T cell response) / DRB1*0401 mice CD4+ (T cell response): −: no binding/T cell response; +/−: weak binding/T cell response; +: intermediate binding/T cell response; ++: strong binding/T cell response; conditions: IFN-gamma ELISpot, ex vivo re-stimulation; for DRB1*0401 mice CD4+ (T cell response): enriched CD4+ fraction of splenocytes of HLA-DR4 transgenic mice vaccinated with the longer peptide; for DRB1*0401 mice total SC (T cell response): total splenocytes of HLA-DR4 transgenic mice vaccinated with the longer peptide
[10] = target: T2, soluble DRB1*0401 molecules (DR4); format: binding; design: key: −: no binding; +/−: weak binding; +: intermediate binding; ++: strong binding; conditions: individual pp65 15mer, SDS-stability assay
[11] = target: T3, soluble DRB1*0404 molecules; assay: Peptide binding assay, SDS-stability assay; design: key: +++: high binding affinity; ++: moderate binding affinity; +: low binding affinity; −: no binding; conditions: individual pp65 15mer
[12] = target: T1, soluble DRB1*0101 molecules; assay: Peptide binding assay, SDS-stability assay; design: key: +++: high binding affinity; ++: moderate binding affinity; +: low binding affinity; −: no binding; conditions: individual pp65 15mer
[13] = target: T3, soluble DRB1*0404 molecules; assay: Peptide binding assay, SDS-stability assay; design: key: −: no binding/T cell response; +/−: weak binding/T cell response; +: intermediate binding/T cell response; ++: strong binding/T cell response; conditions: soluble DRB1*0404 molecules
[14] = target: T1, soluble DRB1*0101 molecules; assay: Peptide binding assay, SDS-stability assay; design: key: −: no binding/T cell response; +/−: weak binding/T cell response; +: intermediate binding/T cell response; ++: strong binding/T cell response; conditions: soluble DRB1*0101 molecules
[15] = individual pp65 15mer, SDS-stability assay

In the case of MSIYVYALPLKMLNI [Peptide 109], the “Binding to DRB1*0101” value [1] was “+” and the “Binding to DRB1*0401” value [2] was “−”.

In the case of DEDSDNEIHNPAVFT [Peptide 469], the “Binding to DRB1*0404 (in words)” value [3] was “found to bind to DRB1*0404; also recorded: weakly binding to DRB1*0404”, the “Induction of IFN-gamma secretion in T cells / PBMC from CMV seropositive donors” value [4] was “induce IFN-gamma secretion; also recorded: can induce functional, IFN-gamma secreting T cells in humans; also recorded: induce INF-gamma production” and the “Intracellular IFN-γ in CD4 and CD8 positive T-cell compartments” value [5] was “significant IFN-γ secretion in both the CD8 and CD4 positive T-cell compartments”. For the same sequence, the “Binding to DRB1*0404” value [6] was “+/−” and the “Binding to DRB1*0401” value [2, 15] was “−”.

In the case of LVPMVATVQGQNLKY [Peptide 496], the “Affinity for several HLA molecules (promiscuity)” value [7] was “affinity for at least two HLA molecules”, the “Binding to DRB1*0404” value [6] was “+” and the “Binding to DRB1*0101” value [1] was “+”. The “Binding to DRB1*0401” value [2, 15] was “−”.

In the case of EDSDNEIHNPAVFTW [Peptide 470], the “Binding to DRB1*0404 (in words)” value [3] was “found to bind to DRB1*0404; also recorded: weakly binding to DRB1*0404”, the “Induction of IFN-gamma secretion in T cells / PBMC from CMV seropositive donors” value [4] was “induce IFN-gamma secretion; also recorded: can induce functional, IFN-gamma secreting T cells in humans; also recorded: induce INF-gamma production” and the “Intracellular IFN-γ in CD4 and CD8 positive T-cell compartments” value [5] was “significant IFN-γ secretion in both the CD8 and CD4 positive T-cell compartments”. The “Affinity for several HLA molecules (promiscuity)” value [7] was “affinity for at least two HLA molecules”, the “Binding to DRB1*0404” value [6] was “+/−” and the “Binding to DRB1*0401” value [2, 15] was “−”.

With WKEPDVYYTSAFVFP [Peptide 175] the “Binding to DRB1 *0401” value [8] was “−”, the “DRB1*0401 mice CD4+ (T cell response)” value [9] was “+” and the “DRB1*0401 mice total SC (T cell response)” value [9] was “+”. For the same sequence, the “Binding to DRB1*0101” value [1] was “+” and the “Binding to DRB1*0401” value [2, 15] was “−”.

With LVSQYTPDSTPCHRG [Peptide 57] the “Binding to DRB1 *0401” value [8] was “++”, the “Induction of IFN-gamma secretion in T cells / PBMC from CMV seropositive donors” value [4] was “induce INF-gamma production” and the “T-cell responses, IFN-γ ELIspot” value ([4]; donor 10788 (FIG. 10)) was “strong T-cell responses”. For the same sequence, the “DRB1*0401 mice CD4+ (T cell response)” value [9] was “+”, the “DRB1*0401 mice total SC (T cell response)” value [9] was “++” and the “Binding to DRB1*0401” value [10] was “++”. The “Binding to DRB1*0404” value [11] was “−”, the “Binding to DRB1*0101” value [12] was “−” and the “Binding to DRB1*0404” value [13] was “−”. The “Binding to DRB1*0101” value [14] was “−”.
